Molecular target: p97 receptor (melanotransferrin receptor, MTf-R) on bovine brain capillary endothelial cells (BBCECs) (bovine)
Experiment: cell-based or functional assay

- decrease in initial rate of [125I]-p97 transport across BBCEC monolayers with recombinant RAP (25 µg/ml): > 50%
Substance: recombinant receptor-associated protein (RAP)

— patent US20030129186A1
